Test results as given in publication PMC6450106.

Molecular target: CAP256 gp140-FL-IP (soluble Env) (HIV-1 (CAP256 SU, subtype C))
Test: native gel or EMSA; NativePAGE Novex 3 to 12% bis-Tris gels, Coomassie stain or anti-gp120 blot, molecular weight against NativeMark standard; protein after GNL affinity and SEC (Superdex 200 HiLoad 16/600)

## CAP256 gp140-FL-IP (soluble Env) (domain or fragment)
  stoichiometry N: 3
